# Paper PMC5700813, “A recombinant BBSome core complex and how it interacts with ciliary cargo” (eLife, 2017)
# Values joined by “and” are separate entries in the source; they are usually repeats but may differ in a detail not shown here. Identical values can stand only once.
# Test: Solubility of purified core BBSome
# Type: physicochemical
# Conditions: purified 6mer core BBSome
# Protocol: The 6mer core BBSome could readily be purified in milligram quantities, and is soluble up to concentrations higher than 150 µM (>50 mg/ml). A single Strep affinity purification yielded almost pure complex with no obvious imbalance in the stoichiometry of components. The complex eluted as a single entity in all subsequent purification steps (Figure 1—figure supplement 3E), and was even resistant to high salt washes of up to 2.5 M NaCl, consistent with a previous study where the native BBSome was eluted with high salt concentrations from an Arl6 affinity column ([Jin et al., 2010]). The complex elutes in gel filtration with an apparent molecular weight of ~400 kDa, in acceptable agreement with the expected theoretical mass of 336.4 kDa (Figure 1—figure supplement 3C,D), but less consistent with it being a dimer.
substance,measurement,value
"6mer core BBSome: recombinant human subcomplex composed of BBS1, 4, 5, 8, 9 and 18",soluble up to concentration,higher than 150 µM and > 50 mg/ml
